Target: MMLV RT N-terminal fragment (fingers/palm catalytic fragment) (Moloney murine leukemia virus, UniProt P03355 683-937)
Assay: X-ray crystallography

Sequence of MMLV RT N-terminal fragment (fingers/palm catalytic fragment) (P03355 683-937): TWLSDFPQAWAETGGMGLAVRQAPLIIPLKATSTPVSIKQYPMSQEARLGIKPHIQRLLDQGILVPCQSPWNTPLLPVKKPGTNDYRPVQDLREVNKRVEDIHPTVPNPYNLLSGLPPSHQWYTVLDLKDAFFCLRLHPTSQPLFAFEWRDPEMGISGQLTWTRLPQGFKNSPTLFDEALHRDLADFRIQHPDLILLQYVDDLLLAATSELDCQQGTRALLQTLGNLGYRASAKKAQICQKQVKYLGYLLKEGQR

B1: 16mer d(CTTAATTCGAATTAAG)2 (dsDNA)
DNA 1: CTTAATTCGAATTAAG
DNA 2: CTTAATTCGAATTAAG
B1: binds.
